Reference: PMC3717276, “Optimization and validation of mitochondria-based functional assay as a useful tool to identify BH3-like molecules selectively targeting anti-apoptotic Bcl-2 proteins” (BMC Biotechnology, 2013)

Tests used:
[1] = biological target: Human Bcl-2 protein (isoform 2 construct), N-terminal 6xHis tagged recombinant protein (human); experiment: fluorescence polarisation; saturation experiments with FAM-Bid and Mcl-1 or Bcl-2 protein; assay buffer 100 mM potassium phosphate, pH 7.5, 100 ug/ml bovine gamma globulin, 0.02% sodium azide
[2] = biological target: Human Bcl-2 protein (isoform 2 construct), N-terminal 6xHis tagged recombinant protein (human); experiment: fluorescence polarisation; competition: Mcl-1 (20 nM) or Bcl-2 (40 nM) pre-incubated with FAM-Bid (2 nM and 2.5 nM), tested BH3 peptide added, 2-3 h; 100 mM potassium phosphate, pH 7.5, 100 ug/ml bovine gamma globulin, 0.02% sodium azide; Ki calculated from IC50
[3] = biological target: Human Bcl-2 protein (isoform 2 construct), N-terminal 6xHis tagged recombinant protein (human); experiment: SPR; competitive solution binding: protein (20 nM) pre-incubated with tested BH3 peptide for at least 30 min, injected over immobilised biotin-Bim BH3 peptide; response at 30 s of dissociation

Kd [1] [nM] | Ki [2] [nM] | IC50 [3] [nM] | Substance
6.3 |  |  | 21-residue Bid BH3 peptide labeled at the N-terminus with 6-carboxyfluorescein succinimidyl ester (FAM-Bid)
 | 11.2 | 51.2 | Bid BH3 peptide (residues 79-99)
